Reference: patent publication US9988424 (DUKE UNIVERSITY, dated 2018)
Where a chain is given by its changes, count along the chain named. Like-named read-outs stand apart in the source and are kept apart here.

T1: J08 C.97ZA012V1V2 (HIV-1)
T1 chain: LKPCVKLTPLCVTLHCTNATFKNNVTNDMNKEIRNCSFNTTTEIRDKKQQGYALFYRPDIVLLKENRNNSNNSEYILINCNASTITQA

T2: gp70 B.CaseA2 V1/V2 (HIV-1 V1V2 on murine leukemia virus gp70)
T2 construct: also called B.gp70CaseA2 V1/V2; gp70 B.CaseAV1V2
T2 chain: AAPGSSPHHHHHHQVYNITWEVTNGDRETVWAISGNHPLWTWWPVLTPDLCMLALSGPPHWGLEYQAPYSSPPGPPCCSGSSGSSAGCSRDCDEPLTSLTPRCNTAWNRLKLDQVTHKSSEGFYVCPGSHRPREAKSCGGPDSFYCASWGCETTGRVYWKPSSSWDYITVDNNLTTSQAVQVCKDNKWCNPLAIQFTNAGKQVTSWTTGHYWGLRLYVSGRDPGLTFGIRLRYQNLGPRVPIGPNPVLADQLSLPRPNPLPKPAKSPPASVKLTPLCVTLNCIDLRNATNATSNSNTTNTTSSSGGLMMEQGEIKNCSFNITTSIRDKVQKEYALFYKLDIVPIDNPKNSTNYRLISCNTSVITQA

T3: AE.A244 V1/V2 Tags N156QN160Q (HIV-1)
T3 chain: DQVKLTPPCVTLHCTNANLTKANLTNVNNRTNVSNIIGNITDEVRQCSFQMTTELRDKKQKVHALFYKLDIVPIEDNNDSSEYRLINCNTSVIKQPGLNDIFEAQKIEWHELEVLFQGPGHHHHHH

B1: 697D (antibody, V domains shown)
VH: QVQLVQSGAEVKKPGSSVKVSCKASGGNFNTYTISWVRQAPGQGLEWMGRIIPIFGIVNPAQKFPGRVTINVDKSTNTAYMELSSLRSEDTAVYYCATSGVGLHFGYFDYWGQGTQVTVSS
VL: QSVLTQPPSVSGAPGQRVTISCTGSSSNIGAHYDVHWYQQLPGTAPKLLIYGNSNRPSGVPDRFSGSKSGTSASLAITGLQAEDEADYYCQSYDSSLSGYVFGTGTKVTVL
notes: also called mAb 697D; V2 conformational mAb 697D
B2: 697D reverted unmutated ancestor antibody (antibody, V domains shown)
VH: QVQLVQSGAEVKKPGSSVKVSCKASGGTFSSYTISWVRQAPGQGLEWMGRIIPILGIANYAQKFQGRVTITADKSTSTAYMELSSLRSEDTAVYYCATSGVGLHFGYFDYWGQGTLVTVSS
VL: B1 VL with H32G
notes: also called 697D RUA
B3: CH59 (antibody, V domains shown)
VH: EVQLVESGGGLVQPGRSLRLSCAASGFTFDDGAMHWVRQAPGKGLEWVSGISWNSNIIAYADSVKGRFTISRDNAKNSLYLEMNSLRVEDTALYYCAKDSPRGELPLNYWGQGTLVTVSS
VL: SYELTQPPSVSVSPGQTARITCSGDALPKNYAYWYQQKSGQAPVLVIYEDSKRPSGIPERFSGSSSGTMATLTISGAQVEDEADYYCYSTDSSGNHRVFGGGTKLTVL
notes: also called mAb CH59
B4: CH59 reverted unmutated ancestor antibody (antibody, V domains shown)
VH: B3 VH with G32Y, N56G, I57S, A59G, E82Q, V88A, L107F, N108D
VL: B3 VL with N30K
notes: also called CH59 RUA; CH59_RUA
B5: PG16 (antibody, V domains shown)
VH: QEQLVESGGGVVQPGGSLRLSCLASGFTFHKYGMHWVRQAPGKGLEWVALISDDGMRKYHSDSMWGRVTISRDNSKNTLYLQFSSLKVEDTAMFFCAREAGGPIWHDDVKYYDFNDGYYNYHYMDVWGKGTTVTVSS
VL: QSALTQPASVSGSPGQTITISCNGTSSDVGGFDSVSWYQQSPGKAPKVMVFDVSHRPSGISNRFSGSKSGNTASLTISGLHIEDEGDYFCSSLTDRSHRIFGGGTKVTVL
notes: also called mAb PG16; bnAb PG16
B6: CH58 reverted unmutated ancestor antibody (antibody, V domains shown)
VH: EVQLVQSGAEVKKPGESLKISCKGSGYSFTSYWIGWVRQMPGKGLEWMGIIYPGDSDTRYSPSFQGQVTISADKSISTAYLQWSSLKASDTAMYYCARLGGRYYYDSSGYYYFDYWGQGTLVTVSS
VL: NFMLTQPHSVSESPGKTVTISCTRSSGSIASNYVQWYQQRPGSSPTTVIYEDNQRPSGVPDRFSGSIDSSSNSASLTISGLKTEDEADYYCQSYDSSSWVFGGGTKLTVL
notes: also called CH58 RUA; CH58_RUA

Key:
[1] = biological target: AE.A244 gp120 (HIV-1)
[2] = biological target: T4, AE.A244 gp120 (HIV-1); test: ELISA
T4 construct: also called AE.A244 gD-gp120; E.A244gDneg

[3] = biological target: gp70 A.92RW020V1V2 (murine leukemia virus; HIV-1); test: ELISA
[4] = biological target: J08 A.92RW020V1V2 (HIV-1); test: ELISA
[5] = biological target: T1, J08 C.97ZA012V1V2; test: ELISA
[6] = biological target: J08 C.ZM109.V1V2 (HIV-1); test: ELISA
[7] = biological target: J08 C.ZM109V1V2 N173D (HIV-1); test: ELISA
[8] = biological target: T2, gp70 B.CaseA2 V1/V2; test: ELISA
[9] = biological target: A.Q23 V1V2 tags (HIV-1); test: ELISA
[10] = biological target: T4, AE.A244 gp120; test: ELISA; remark: listed apart in the source
[11] = biological target: T5, AE.A244 V1/V2 tags, natively deglycosylated (HIV-1); test: ELISA
T5 construct: also called AE.A244V1V2 tags Degly

[12] = biological target: T6, AE.A244 gp120 delta 11 (HIV-1); test: ELISA
T6 construct: also called E.A244gp120Δ11; AE.A244 Δ11 gp120

[13] = biological target: T7, AE.A244 gp120D11/K169V (HIV-1); test: ELISA
T7 construct: also called A244 gp120 K169V; AE.A244 gp120/K169V

[14] = biological target: T8, AE.A244 gp120 D11/K169V/V172E/H173Y (HIV-1); test: ELISA
T8 construct: also called A244 gp120 Mut3

[15] = biological target: T9, AE.703359 gp120D11 (HIV-1); test: ELISA
T9 construct: also called AE; 703359 gp120 WT; AE.703357 (other spelling in the text)

[16] = biological target: T10, AE.703359 gp120D11/Q169K (HIV-1); test: ELISA
T10 construct: also called AE.703359 gp120 Q169K

[17] = biological target: T11, AE.703359 gp120D11/Q169K/R170Q/Q173H (HIV-1); test: ELISA
T11 construct: also called AE.703359 gp120 Mut3

[18] = biological target: T12, AE.427299 gp120D11 (HIV-1); test: ELISA
T12 construct: also called AE.427299 gp120 WT

[19] = biological target: T13, AE.427299 gp120D11/Q169K (HIV-1); test: ELISA
T13 construct: also called AE.427299 gp120 Q169K

[20] = biological target: T14, AE.427299 gp120/R168K/Q169K/Y173H/A174V (HIV-1); test: ELISA
T14 construct: also called AE.427299 gp120 Mut4

[21] = biological target: T2, gp70 B.CaseA2 V1/V2; test: ELISA
[22] = biological target: A.Q23 V1V2 tags (HIV-1); test: ELISA; remark: listed apart in the source
[23] = biological target: D.9009SA V1/V2 tags; test: ELISA, OD405 at 10 ug/ml
[24] = biological target: J08 A.92RW020V1V2 (HIV-1); test: SPR (BIAcore), mAb captured on anti-Fc surface, V1V2 protein injected as analyte, Synagis surface subtracted, global 1:1 Langmuir fit
[25] = biological target: 92TH023 gp120 (HIV-1)
[26] = biological target: T15, AE.A244 gD+ gp120 (HIV-1); test: ELISA
T15 construct: domain: gp120; also called AE.A244 gp120gD+

[27] = biological target: T15, AE.A244 gD+ gp120; test: ELISA; remark: listed apart in the source
[28] = biological target: T3, AE.A244 V1/V2 Tags N156QN160Q; test: ELISA
[29] = biological target: Env of 427299.c12.H81L virus (HIV-1); test: cell-based or functional assay
[30] = biological target: B. 681-7 gp140C; test: ELISA, OD405
[31] = biological target: B.040 gp140C; test: ELISA, OD405
[32] = biological target: T16, B.62357 140C; test: ELISA, OD405
T16 construct: also called B.62357 gp140C

[33] = biological target: T17, B.con gp140CF; test: ELISA, OD405
T17 construct: also called B.con.env03 gp140CF

Binder | IC50 [1] [nM] | EC50 [2] [nM] | EC50 [3] [nM] | EC50 [4] [nM] | EC50 [5] [nM] | EC50 [6] [nM] | EC50 [7] [nM] | EC50 [8] [nM] | EC50 [9] [nM] | EC50 [10] [nM] | EC50 [11] [nM] | EC50 [12] [µg/mL] | EC50 [13] [µg/mL] | EC50 [16] [µg/mL] | EC50 [17] [µg/mL] | EC50 [21] [nM] | EC50 [22] [nM] | IC50 [25] [nM] | EC50 [26] [nM] | ID50 assayed in TZM-bl cells, 427299.c12.H81L [29] [µg/mL] | also measured
B1 | < 10 | 0.8 | 14 | 0.07 | 0.06 | 3 | 0.41 | 0.33 | > 66.7 | 0.8 | 3.6 | 0.1 | 0.06 | 0.51 | 0.12 | 0.08 | > 66.7 |  |  |  | EC50 [14]: 0.08 µg/mL; EC50 [15]: 0.21 µg/mL; EC50 [18]: 0.07 µg/mL; EC50 [19]: 0.13 µg/mL; binding result [20]: no binding; binding result [23]: no binding (tested: 10 ug/ml); Kd [24]: 57.5 nM; koff [24]: 0.008 s⁻¹; kon [24]: 140000 M⁻¹ s⁻¹
B2 |  |  |  |  |  |  |  | > 667 | > 667 |  |  |  |  |  |  | > 667 | > 667 |  |  |  | 
B3 | < 10 | 0.03 | 235 | 377 | 107 | 1.16 | 22 |  |  | 0.03 | 0.0015 | 0.029 | 0.58 | 1.2 | 0.05 |  |  | < 10 | 0.04 | > 50 | EC50 [27]: 0.04 nM; binding result [14]: no binding; binding result [15]: no binding; binding result [18]: no binding; binding result [19]: no binding; EC50 [20]: 0.03 µg/mL; binding result [28]: binds
B4 |  |  |  |  |  |  |  |  |  |  |  |  |  |  |  |  |  |  |  | > 50 | 
B5 |  |  |  |  |  |  |  |  |  |  |  |  |  |  |  |  |  | 10 to 100 | 15 |  | EC50 [27]: 15 nM; binding result [28]: no binding (tested: 100 ug/ml); binding result [30]: no binding (tested: 10 ug/ml); binding result [31]: no binding (tested: 10 ug/ml); binding result [32]: no binding (tested: 10 ug/ml); binding result [33]: no binding (tested: 10 ug/ml)
B6 |  |  |  |  |  |  |  |  |  |  |  |  |  |  |  |  |  |  |  | > 50 | 
